Results: publication PMC6353898, “A Rational Approach for Creating Peptides Mimicking Antibody Binding” (Scientific Reports, 2019)

Molecular target: EGFR recombinant human protein (human) (UniProt P00533)
Test: SPR; EGFR (20 µg/mL) or BSA (20 µg/mL) covalently attached (EDC/NHS) to a carboxymethylated dextran chip; peptides injected as analytes at 15 µL/min; 25 °C; PBS with 0.01% Tween 20, pH 7.4; global fit, 1:1 Langmuir model with mass transport; KD from koff/kon

Kd [nM]	Binder
595	WSGENGPGTFYDYEA (designed binder) [Pep22]
252	WSGENGPGFYDYEA (designed binder) [Pep11]
4800	WSGENGPGYFDYEA (designed binder) [Pep6]
